From article PMC7954794, “Protein context shapes the specificity of SH3 domain-mediated interactions in vivo” (Nature Communications, 2021) come the findings set out here.

To fix the notation:
B1: YAR042W (protein, UniProt P35845 1-1188, looked up)
Oxysterol-binding protein …: MEQPDLSSVAISKPLLKLKLLDALRQGSFPNLQDLLKKQFQPLDDPNVQQVLHLMLHYAVQVAPMAVIKEIVHHWVSTTNTTFLNIHLDLNERDSNGNTPLHIAAYQSRGDIVAFLLDQPTINDCVLNNSHLQAIEMCKNLNIAQMMQVKRSTYVAETAQEFRTAFNNRDFGHLESILSSPRNAELLDINGMDPETGDTVLHEFVKKRDVIMCRWLLEHGADPFKRDRKGKLPIELVRKVNENDTATNTKIAIDIELKKLLERATREQSVIDVTNNNLHEAPTYKGYLKKWTNFAQGYKLRWFILSSDGKLSYYIDQADTKNACRGSLNMSSCSLHLDSSEKLKFEIIGGNNGVIRWHLKGNHPIETNRWVWAIQGAIRYAKDREILLHNGPYSPSLALSHGLSSKVSNKENLHATSKRLTKSPHLSKSTLTQNDHDNDDDSTNNNNNKSNNDYDDNNNNNNNDDDDYDDDDESRPLIEPLPLISSRSQSLSEITPGPHSRKSTVSSTRAADIPSDDEGYSEDDSDDDGNSSYTMENGGENDGDEDLNAIYGPYIQKLHMLQRSISIELASLNELLQDKQQHDEYWNTVNTSIETVSEFFDKLNRLTSQREKRMIAQMTKQRDVNNVWIQSVKDLEMELVDKDEKLVALDKERKNLKKMLQKKLNNQPQVETEANEESDDANSMIKGSQESTNTLEEIVKFIEATKESDEDSDADEFFDAEEAASDKKANDSEDLTTNKETPANAKPQEEAPEDESLIVISSPQVEKKNQLLKEGSFVGYEDPVRTKLALDEDNRPKIGLWSVLKSMVGQDLTKLTLPVSFNEPTSLLQRVSEDIEYSHILDQAATFEDSSLRMLYVAAFTASMYASTTNRVSKPFNPLLGETFEYARTDGQYRFFTEQVSHHPPISATWTESPKWDFYGECNVDSSFNGRTFAVQHLGLWYITIRPDHNISVPEETYSWKKPNNTVIGILMGKPQVDNSGDVKVTNHTTGDYCMLHYKAHGWTSAGAYEVRGEVFNKDDKKLWVLGGHWNDSIYGKKVTARGGELTLDRIKTANSATGGPKLDGSKFLIWKANERPSVPFNLTSFALTLNALPPHLIPYLAPTDSRLRPDQRAMENGEYDKAAAEKHRVEVKQRAAKKEREQKGEEYRPKWFVQEEHPVTKSLYWKFNGEYWNKRKNHDFKDCADIF
B2: YDL160C (protein, UniProt P39517 1-506, looked up)
ATP-dependent RNA helicase …: MGSINNNFNTNNNSNTDLDRDWKTALNIPKKDTRPQTDDVLNTKGNTFEDFYLKRELLMGIFEAGFEKPSPIQEEAIPVAITGRDILARAKNGTGKTAAFVIPTLEKVKPKLNKIQALIMVPTRELALQTSQVVRTLGKHCGISCMVTTGGTNLRDDILRLNETVHILVGTPGRVLDLASRKVADLSDCSLFIMDEADKMLSRDFKTIIEQILSFLPPTHQSLLFSATFPLTVKEFMVKHLHKPYEINLMEELTLKGITQYYAFVEERQKLHCLNTLFSKLQINQAIIFCNSTNRVELLAKKITDLGYSCYYSHARMKQQERNKVFHEFRQGKVRTLVCSDLLTRGIDIQAVNVVINFDFPKTAETYLHRIGRSGRFGHLGLAINLINWNDRFNLYKIEQELGTEIAAIPATIDKSLYVAENDETVPVPFPIEQQSYHQQAIPQQQLPSQQQFAIPPQQHHPQFMVPPSHQQQQAYPPPQMPSQQGYPPQQEHFMAMPPGQSQPQY
B3: YNL287W (protein, UniProt P32074 1-935, looked up)
Coatomer subunit gamma: MSAHTYKKFENSTSGDLPDKMTIYQDCMNTFNESPVNSKRCRLLISRLLRLLAQGETFPQNEATALFFSISKLFQHQNDPLRQAVYLAIKELSGISEDVLMATSSIMKDVQNGSDLIKPDAIRSLTYVLDESTAFSAERLLKSAVVSRHPSISSAALCTSYHLLPISEVTIRRFTNETQEAVLDLKQFPNQHGNSEYYPNSTYISQYHALGLLYQLKKTDKMALLKLVRHFSENNSMKNQLAKVELVKIVNDLIYRDPQLFSQFRPLLSDWLSNKFESVQLETAKLITSFATRNSRLVAPELYAAAISALQSLLTVPRVSSRFAALRILNRISMVSPEKIVVCNPELESLINDSNRNISTYAITTLLKTGTSKNISSLISTITNFIHDVSDDFKIIIIDAVRTLSLNFPQEWKSILNFLIDVLKNSEGGFKFKNSIVEALIDIVSFVPQSKELALENLCDFIEDCEFNEILVRILHLLGKEGPSAPNPSLYVRHIYNRVVLENSIIRSAAVVALSKFALTKNDPTLYESIISLLKRIANDKDDEVRDRATIALEFIDSARNKDDVIAQNLIESKYFYDIPSLESKLSSYISSNTDSFATAFDVNQVRKFTEDEMKAINLKRKQEQIFNQKSETTLDTTPEAESVPEKRADANSFAGPNLDDHQEDLLATKYADELLSIEQIKPFGQLVNSSRAISLTEPEAEFVVRGVKHLFKDNVVLQFNITNTLTDIALDNVSVVCTPEISDEAELEELFTLQVDRLLPSEEAACYVAFKKLDEIVMEGFLNNLTFTTKEINPDTNEPFDGDEGFQDEYEIDSIFLNAGDYVKSSFTGNFSATFDELPCEEVAVFNIQEDLSIQEVVDKIILNSSCLPVESTQFAPSDSNSHTLKLFGKSALTGSKVALQIKMIKSSKGLALKVHGKGEDSLLCSDLVNGLMQ
B4: YGR178C (protein, UniProt P53297 1-722, looked up)
PAB1-binding protein 1: MKGNFRKRDSSTNSRKGGNSDSNYTNGGVPNQNNSSMFYENPEITRNFDDRQDYLLANSIGSDVTVTVTSGVKYTGLLVSCNLESTNGIDVVLRFPRVADSGVSDSVDDLAKTLGETLLIHGEDVAELELKNIDLSLDEKWENSKAQETTPARTNIEKERVNGESNEVTKFRTDVDISGSGREIKERKLEKWTPEEGAEHFDINKGKALEDDSASWDQFAVNEKKFGVKSTFDEHLYTTKINKDDPNYSKRLQEAERIAKEIESQGTSGNIHIAEDRGIIIDDSGLDEEDLYSGVDRRGDELLAALKSNSKPNSNKGNRYVPPTLRQQPHHMDPAIISSSNSNKNENAVSTDTSTPAAAGAPEGKPPQKTSKNKKSLSSKEAQIEELKKFSEKFKVPYDIPKDMLEVLKRSSSTLKSNSSLPPKPISKTPSAKTVSPTTQISAGKSESRRSGSNISQGQSSTGHTTRSSTSLRRRNHGSFFGAKNPHTNDAKRVLFGKSFNMFIKSKEAHDEKKKGDDASENMEPFFIEKPYFTAPTWLNTIEESYKTFFPDEDTAIQEAQTRFQQRQLNSMGNAVPGMNPAMGMNMGGMMGFPMGGPSASPNPMMNGFAAGSMGMYMPFQPQPMFYHPSMPQMMPVMGSNGAEEGGGNISPHVPAGFMAAGPGAPMGAFGYPGGIPFQGMMGSGPSGMPANGSAMHSHGHSRNYHQTSHHGHHNSSTSGHK
B5: YBR130C (protein, UniProt P38272 1-425, looked up)
SWI5-dependent HO expression …: MSDQDNTQTSSSKLAPHHNIFMANLESSPTKDRNTSSQNASSSRVIESLHDQIDMLTKTNLQLTTQSQNLLSKLELAQSKESKLLENLNLLKNENENLNSIFERKNKKLKELEKDYSELSNRYNEQKEKMDQLSKLAKNSSAIEQSCSEKLQNMEVNYNSLLESQNLYRDHYSDEISKLNEKIGLLELELSNQNLNYGSDTSSNSDIELNLNKFNDSVKDLKSLETEKDSKLSKIITHSLDELNLQSWLNLYQTNENLISTFAEKMDLKDVLKRNDEKISNKGAVVQTLKKNVQTQVESNNADALSSNNAQDMLPIKMVKLRKTPNTNDSSSNGNSSNNKRRSFYTASPLLSSGSIPKSASPVLPGVKRTASVRKPSSSSSKTNVTHNNDPSTSPTISVPPGVTRTVSSTHKKKGNSMVVHGAQS
B6: YOR284W (protein, UniProt Q12134 1-243, looked up)
Protein HUA2: MQQTKFGKMYLDHDSVVEYSEDEIVEADRITLGYKKRLSMIENQMRHLLEDFSLDVQQIEPILADLQKYYDAFLQLLQKRNKSLQCKRSTHQPVPSPMNSQTSTNAKVNLSGKLMKFQLNSVQKFDEENILRILQNKIEFEHYFQIDKGKKQKVLLLAVYQCLNGPTRLHKVLNIEGIIHNNSIRTILGKQVSSSKWTVFLYDVKLVLLAHRQDVPNLETSKMIVRYGDLFPCALYFKDHTAY

One assay concerns ABP1. The assay can be described thus: DHFR-PCA on solid medium, bait ABP1 (Fig. 1B). To be noted: bait ABP1, label = prey; 2-4 replicates. In kind it is cell-based, Saccharomyces cerevisiae. The source says: Supplement 41467_2021_21873_MOESM8_ESM.xlsx, sheet "Fig1B" | column: medsize; medrep; Ratio; Score
As to B1, the “medrep (log2 median colony size normalized to plate background, PCA score)” value turned out to be 1.62.

As for B2, the “medrep (log2 median colony size normalized to plate background, PCA score)” value is 1.807.

With B3, the “medrep (log2 median colony size normalized to plate background, PCA score)” value was 2.55.

With B4, the “medrep (log2 median colony size normalized to plate background, PCA score)” value was 1.414.

As to B5, the “medrep (log2 median colony size normalized to plate background, PCA score)” value is given as 2.63.

B6: the “medrep (log2 median colony size normalized to plate background, PCA score)” value was 3.262.

The same assay, now with this note: bait ABP1, label = prey; only significant differences showed; PPIs completely lost have a ratio of 0.1 and the gained PPIs 2.5.
Take B1: the “Ratio (SH3-deleted/WT medrep)” value is listed as 2.5.

Take B2: the “Ratio (SH3-deleted/WT medrep)” value turned out to be 2.5.

As to B3, the “Ratio (SH3-deleted/WT medrep)” value was 1.797.

Regarding B4, the “Ratio (SH3-deleted/WT medrep)” value turned out to be 2.5.

On to B6, for which the “Ratio (SH3-deleted/WT medrep)” value is given as 0.1.
